Paper PMC2949506

What was measured:
[1] = molecular target: HIV-1 Vif (HXB2) L145A (HIV-1 (HXB2)) (UniProt P69723); assay: pull-down
[2] = molecular target: Elongin BC complex (human Elongin B with Elongin C residues 17-122) (human) (UniProt Q15370); assay: HDX-MS
[3] = molecular target: Elongin BC complex (Homo sapiens) (UniProt Q15370); assay: ITC; conditions: cited from earlier work

Row | Substance | Kd [2] [nM] | Kd [3] [nM] | further results
1 | Elongin BC complex (human Elongin B with Elongin C residues 17-122) (from UniProt Q15370 1-118) |  |  | fold reduction of binding versus wt Vif [1]: 3 fold
2 | Full length HIV-1 Vif (HXB2) (from UniProt P69723) (natural protein) | 1900 |  | stoichiometry N [2]: 1
3 | HIV-1 Vif (HXB2) L145A (from UniProt P69723) (natural protein) | 3900 |  | 
4 | Vif 130-180 (from UniProt P69722) |  | 1190 | 
5 | Vif 139-192 (from UniProt P69722) |  | 0.4 | 
